B1: AB-P2: prior art anti-PSMA antibody, heavy and light chain SEQ ID No 37 and 38 (antibody, V domains shown)
VH: MELGLRWVLLVALLRGVQCQVQLVESGGGVVQPGRSLRLSCAASGFTFSNYVMHWVRQAPGKGLEWVAIIWYDGSNKYYADSVKGRFTISRDNSKNTLYLQMNSLRAEDTAVYYCAGGYNWNYEYHYYGMDVWGQGTTVTVSS
VL: MRVPAQLLGLLLLCFPGARCDIQMTQSPSSLSASVGDRVTITCRASQGITNYLAWFQQKPGKAPKSLIYAASSLQSGVPSKFSGSGSGTDFSLTISSLQPEDFATYYCQQYNSYPITFGQGTRLEIK
B2: ADC 34 (conjugate)
heavy: QVQLVESGGGVVQPGRSLRLSCAASGFTFSNYVMHWVRQAPGKGLEWVAIIWYDGSNKYYADSVKGRFTISRDNSKNTLYLQMNSLRAEDTAVYYCAGGYNWNYEYHYYGMDVWGQGTTVTVSS
light: DIQMTQSPSSLSASVGDRVTITCRASQGITNYLAWFQQKPGKAPKSLIYAASSLQSGVPSKFSGSGSGTDFSLTISSLQPEDFATYYCQQYNSYPITFGQGTRLEIK
modifications: non-natural residues

Assays:
[1] = Fluorescence-based thermal-shift assay (Sypro Orange); assay type: physicochemical
Experimental: Antibody was diluted to 1.5 mg/mL with DPBS, pH 7.1-7.5, and the concentration determined by measuring OD at 280 nm using a Nanodrop instrument. SEC analysis was carried out prior to thermal-shift analysis to confirm that over 99% of each antibody was present in their native form.
An RT-PCR instrument (StepOnePlus, Applied Biosystems) was set-up for a fluorescence-based thermal-shift assay using Sypro Orange dye as a fluorescent reporter. The assay was set-up in a PCR 96 well plate with five replicates per antibody sample and a final reaction volume of 20 μL per well. 13.5 μL of DPBS was pipetted in each well followed by the addition of 4 μL of antibody. […] Fluorescence data was collected throughout the temperature ramp, using an excitation filter at 470 nm and emission filter at 610 nm. […] The melting curves generated by the instrument software during the thermal unfolding of the antibodies result from the plotting of fluorescence vs. temperature. The melting temperature (Tm), is the temperature at which half of the antibody molecules are unfolded, (indicated by a 50% increase in fluorescence), and can be determined from the inflection point of the melting curve. The Tms are conventionally calculated by plotting a derivative plot. This is the change in fluorescence divided by the […] (the change rate) plotted on the Y-axis versus temperature on the X-axis. […]

[2] = Heat stress test with SEC analysis of aggregation; assay type: physicochemical
Experimental: Antibody samples (0.5 mg/mL in PBS) were incubated at 75° C. for 30 min followed by incubation in an ice-bath for 5 min prior to being analysed for their extent of aggregation. Analysis of antibody solutions was carried out by Size Exclusion Chromatography (SEC) and by turbidity measurements.
SEC was performed using a TOSOH Bioscience TSK gel Super SW 3000 column. UV absorbance at 280 nm was monitored during an isocratic elution with a 0.2 M Potassium phosphate buffer, pH 6.8 (0.2 M potassium chloride and 15% isopropanol). The elution times and number of peaks indicate whether the sample contains aggregated, degraded or native antibody. The % area under the curve (Abs280) was used to determine the quantity of each species present in the SEC analysis.

[3] = test system: PC-3 cells; test: In vitro cell viability assay (CellTiter Glo), PC-3 (PSMA-negative control); assay type: cell-based; conditions: Example 16; PSMA-negative PC-3 (negative control), 96 h
From the text: Loss of tumour cell viability following treatment with cytotoxic drugs or ADCs in vitro can be measured by growing cell lines in the presence of increasing concentrations of drugs or ADCs and quantifying the loss of proliferation or metabolic activity using CellTiter Glo® Luminescence reagent (Promega Corp. Technical Bulletin TB288; Lewis Phillips G. D, Cancer Res 2008; 68:9280-9290). The protocol describes cell seeding, drug treatment and determination of the cell viability in reference to untreated cells based on ATP synthesis, which is directly related to the number of cells present in the well.
PSMA-positive LNCaP (clone FGC) and C4-2 cells, as well as PSMA-negative PC-3 cells were detached with TrypLE and resuspended in complete medium. Cells were counted using disposable Neubauer counting chambers and cell density adjusted to 10×10^4 cells/mL for LNCaP, 2×10^4 cells/mL for C4-2 and 1×10^4 cells/mL for PC-3 respectively. […]
The cell viability assay was carried out using the Cell-Titer Glo® Luminescence reagent, as described by the manufacturer's instructions, (Promega Corp. Technical Bulletin TB288; Lewis Phillips G. D, Cancer Res 2008; 68:9280-9290). Luminescence was recorded using a plate reader (e.g. Molecular Devices Spectramax M3 plate reader), and data subsequently analysed using a four parameter non-linear regression model. […]

[4] = post stress test: 0.5 mg/mL in PBS, 75° C. for 30 min, then ice-bath 5 min, SEC

Row | Molecule | Tm1 (° C.) ([1]; first transition peak: unfolding of the CH2 and Fab domains) [°C] | Tm2 (° C.) ([1]; second transition peak: unfolding of the CH3 domain) [°C] | Ab in aggregated form (%) [2, 4] [%] | Ab in native conformation (%) [2, 4] [%] | stability in heat stress SEC analysis (in words) ([2]; propensity to aggregate upon heating and cooling) | IC50 [3] [nM]
1 | B1 | 68.9 ± 0.1 | 75.2 ± 0.1 | 100 | 0 | less stable than AB-03 | –
2 | B2 | – | – | – | – | – | > 50

Reference: US11485792B2, “Antibodies, uses thereof and conjugates thereof” (Polytherics Limited, priority 2016, dated 2022)
